Source: publication PMC8558838 (The Journal of Experimental Medicine, 2021)

B1: hCD160-6×His tag protein [human] / WT hHVEM (L39-V202) fused with a PD-L1 transmembrane domain and EGFP, on cells [human] (parent complex)
chain 1: GCINITSSASQEGTRLNLICTVWHKKEEAEGFVVFLCKDRSGDCSPETSLKQLRLKRDPGIDGVGEISSQLMFTISQVTPLHSGTYQCCARSQKSGIRLQGHFFSILFTETGNYTVTGLKQRQHLEFSHNEGTLS
chain 2: LPSCKEDEYPVGSECCPKCSPGYRVKEACGELTGTVCEPCPPGTYIAHLNGLSKCLQCQMCDPAMGLRASRNCSRTENAVCGCSPGHFCIVQDGDHCAACRAYATSSPGQRVQKGGTESQDTLCQNCPPGTFSPNGTLEECQHQTKCSWLVTKAGAGTSSSHWV
B2: human LIGHT extracellular domain (L83-V240) [human] / WT hHVEM (L39-V202) fused with a PD-L1 transmembrane domain and EGFP, on cells [human] (parent complex)
chain 1: LIQERRSHEVNPAAHLTGANSSLTGSGGPLLWETQLGLAFLRGLSYHDGALVVTKAGYYYIYSKVQLGGVGCPLGLASTITHGLYKRTPRYPEELELLVSQQSPCGRATSSSRVWWDSSFLGGVVHLEAGEKVVVRVLDERLVRLRDGTRSYFGAFMV
chain 2: B1 chain 2

Variants of: B1
Assay: flow cytometry on cells stained with soluble protein
Work on chain 2 LPSCKEDEYPVGSECCPKCSPGYRVKEACGELTGTVCEPCPPGTYIAHLNGLSKCAQCQMCDPAMGLRASRNCSRTENAVCGCSPGHFCIVQDGDHCAACRAYATSSPGQRVQKGGTESQDTLCQNCPPGTFSPNGTLEECQHQTKCSWLVTKAGAGTSSSHWV yielded a ratio to parent of 1.1.
For chain 2 LPSCKEDEYPVGSECCPKCSPGYRVKEACGELTGTVCEPCPPGTYIAHLNGASKCLQCQMCDPAMGLRASRNCSRTENAVCGCSPGHFCIVQDGDHCAACRAYATSSPGQRVQKGGTESQDTLCQNCPPGTFSPNGTLEECQHQTKCSWLVTKAGAGTSSSHWV, the ratio to parent was 1.1.

Variants of: B2
Assay: as above
In the case of chain 2 LPSCKEDEYPVGSECCPKCSPGYRVKEACGELTGTVCEPCPPGTYIAHANGLSKCLQCQMCDPAMGLRASRNCSRTENAVCGCSPGHFCIVQDGDHCAACRAYATSSPGQRVQKGGTESQDTLCQNCPPGTFSPNGTLEECQHQTKCSWLVTKAGAGTSSSHWV, the ratio to parent is reported as 1.2.
With chain 2 LPSCKEDEYPVGSECCPKCSPGYRVKEACGELTGTVCEPCPPGTYIAHLAGLSKCLQCQMCDPAMGLRASRNCSRTENAVCGCSPGHFCIVQDGDHCAACRAYATSSPGQRVQKGGTESQDTLCQNCPPGTFSPNGTLEECQHQTKCSWLVTKAGAGTSSSHWV the ratio to parent was 0.7.
Work on chain 2 LPSCKEDEYPVGSECCPKCSPGYRVKEACGELTGTVCEPCPPGTYIAHLNGLSKCLQCQMCDPAMGLRASRNCSRTANAVCGCSPGHFCIVQDGDHCAACRAYATSSPGQRVQKGGTESQDTLCQNCPPGTFSPNGTLEECQHQTKCSWLVTKAGAGTSSSHWV yielded a ratio to parent of 1.
chain 2 LPSCKEDEYPVGSECCPKCSPGYRVKEACGELTGTVCEPCPPGTYIAHLNGASKCLQCQMCDPAMGLRASRNCSRTENAVCGCSPGHFCIVQDGDHCAACRAYATSSPGQRVQKGGTESQDTLCQNCPPGTFSPNGTLEECQHQTKCSWLVTKAGAGTSSSHWV gave a ratio to parent of 0.9.
chain 2 LPSCKEDEYPVGSECCPKCSPGYRVKEACGELTGTVCEPCPPGTYIAHLNGLSKCAQCQMCDPAMGLRASRNCSRTENAVCGCSPGHFCIVQDGDHCAACRAYATSSPGQRVQKGGTESQDTLCQNCPPGTFSPNGTLEECQHQTKCSWLVTKAGAGTSSSHWV gave a ratio to parent of 1.8.
chain 2 LPSCKEDEYPVGSECCPKCSPGYRVKEACGELTGTVCEPCPPGTYIAHLNALSKCLQCQMCDPAMGLRASRNCSRTENAVCGCSPGHFCIVQDGDHCAACRAYATSSPGQRVQKGGTESQDTLCQNCPPGTFSPNGTLEECQHQTKCSWLVTKAGAGTSSSHWV showed a ratio to parent of 1.2.
